From PMC6511850 (Nucleic Acids Research, 2019) come the findings set out here.

The data set deals with the molecule itself. Nature of the data set: SEC. (In general: In gel filtration, larger molecules generally elute earlier.)

B1: Bacillus subtilis m1A22 tRNA methyltransferase TrmK (wild type) (enzyme, UniProt P54471 1-238, looked up)
chain: MNELKLSKRLQTVAEYIPNGAVMADIGSDHAYLPCYAVLNHKASGAIAGEITDGPFLSAKRQVEKSGLNSHISVRQGDGLEVIKKGEADAITIAGMGGALIAHILEAGKDKLTGKERLILQPNIHAVHIREWLYKERYALIDEVILEEDGKCYEVLVAEAGDRDAAYDGISLSAGMLVGPFLAKEKNAVFLKKWTQELQHTQSIYEQISQAADTEQNKQKLKELADRMELLKEVIDHG
Take B1: the binding result is reported as “binds”.
